Measured values from US20240366811A1, “RA[…] P[…] USES THEREOF” (TIANJIN CONJUSTAR BIOLOGICS CO., LTD., priority 2023, published 2024).
*1 amine or outer side, *2 acyl side, *3 side chain or, on linkers, in order; H or OH if unused. Where a SMILES comes first, the peptide text is derived from it. Bridges are numbered along the chain shown (N, C = ends). [ ]: non-standard residue; d: D form. The star is where a group is joined. TATA = O=C(CC[*:1])N1CN(C(=O)CC[*:2])CN(C(=O)CC[*:3])C1; NOTA = O=C(O)CN1CCN(CC(=O)O)CCN(CC(=O)*)CC1; Hyp = O=C(O)[C@@H]1C[C@@H](O)CN1; hArg = N=C(N)NCCCC[C@H](N)C(=O)O; Pen = CC(C)(S)[C@H](N)C(=O)O; βAla = NCCC(=O)O; Sar = CNCC(=O)O

Legend:
[1] = in vivo; conditions: nude, mouse, iv, 11.1 MBq, total radioactivity
Protocol: The tissue distribution characteristics of the compounds in PC-3 tumor-bearing mice were studied by using the PC-3 tumor-bearing mice model, small animal PET/CT scans were performed at different time points after a single intravenous administration of the compounds, tumors and other regions of interest were delineated to obtain radioactive uptake values.
Tumor cells in the logarithmic growth phase were used for in vivo tumor inoculation. PC-3 cells were suspended in saline at a density of 5×10^6/mL, and a total of 15 nude mice were inoculated under the right flank at 0.1 mL per inoculation point. Imaging and biodistribution experiments were performed when tumors grew to 300-600 mm^3 (tumor volume measurement method: the long diameter and short diameter of the tumor were measured, and its volume calculation formula was: volume=0.5× major diameter× minor diameter^2). The drug was distributed according to the animal dose on the drug distribution table, and a certain volume of compound diluent was absorbed by a 1 mL insulin syringe, and the initial radioactive dose and initial dosimetry time were recorded. The injection time, residual radioactivity dose, and residual dose determination time were recorded after tail vein injection in tumor-bearing mice. […] PET/CT scans of animals were performed at different time points after administration. During the scanning process, the animals continued to inhale 1-2% isoflurane to maintain the anesthetic effect, and the scanning time was recorded. […] After the completion of PET/CT scanning, the images were reconstructed and the images and data were processed with the software of the device. The tumor, heart (including contents), kidney, intestine, and muscle were delineated as regions of interest. The percentage injection dose rate per gram of tissue in the area of interest (% ID/g) was obtained. The data of biological distribution was expressed as the percentage of radioactive count per gram of tissue or organ to the total dose (radioactive count) (% ID/g).
Data for each sampling point were expressed as the mean standard deviation (mean SD) of 3 tumor-bearing mice.

[2] = in vivo; conditions: mouse, iv, 11.1 MBq, total radioactivity; for tissue uptake at 4 h: dissected tissue, single iv 11.1 MBq
Protocol: In vivo radiobiological distribution assay: mice in the PET/CT imaging group were sacrificed immediately after the end of 4 h imaging, and mice in the inhibition group were sacrificed after 1 h imaging. Tissue samples of tumor, blood, heart, lung, liver, spleen, kidney, stomach, intestine, bone, muscle, and brain were collected by dissection, weighed and their radioactive counts were recorded. The probe uptake value in each tissue and organ of each experimental animal is expressed as radioactivity per gram of tissue as a percentage of the dose administered (% ID/g).

[3] = tumor and heart (including contents)

CC(C)C[C@@H]1NC(=O)[C@@H]2CSCCC(=O)N3CN(CN(C3)C(=O)CCSC(C)(C)[C@@H](C(N)=O)NC(=O)[C@H](CCCCNC(=N)N)NC(=O)[C@H](Cc3c[nH]c4ccccc34)NC(=O)[C@@H](CC(=O)O)NC(=O)[C@@H]3CCCN3C(=O)[C@H](Cc3c[nH]cn3)NC1=O)C(=O)CCSC[C@H](NC(=O)[C@@H]1CC(=O)NCCCC[C@H](NC(=O)CN(C)C(=O)CN(C)C(=O)CN(C)C(=O)CN(C)C(=O)CN(C)C(=O)CN(C)C(=O)CN(C)C(=O)CN(C)C(=O)CN(C)C(=O)CN(C)C(=O)CCNC(=O)CN3CCN(CC(=O)O)CCN(CC(=O)O)CC3)C(=O)N[C@@H](CCCCNC(=N)N)C(=O)N1)C(=O)N1C[C@H](O)C[C@H]1C(=O)N[C@@H](CC(C)C)C(=O)N[C@@H](C(C)C)C(=O)N[C@@H](CC(N)=O)C(=O)N1CCC[C@H]1C(=O)N[C@@H](CC(C)C)C(=O)N2 [Example 3] ({NOTA-βAla}-[Sar][Sar][Sar][Sar][Sar][Sar][Sar][Sar][Sar][Sar]K[hArg]DC[Hyp]LVNPLCLHP[dD]W[hArg][Pen]-NH2; lactam 11-13; linker 14-21-28 via TATA)
tissue uptake at 2 h ([1]; muscle): 0.07 ± 0.02 %ID/g | tissue uptake at 4 h ([1]; muscle): 0.03 ± 0.01 %ID/g | tissue to tissue ratio at 0.5 h [1, 3]: 1.23 ± 0.25 | tissue to tissue ratio at 1 h [1, 3]: 2.08 ± 0.74 | tissue to tissue ratio at 2 h [1, 3]: 6.97 ± 3.01 | tissue to tissue ratio at 4 h [1, 3]: 15.9 ± 5.85 | tissue to tissue ratio at 0.5 h ([1]; tumor and kidney): 0.12 ± 0.01 | tissue to tissue ratio at 1 h ([1]; tumor and kidney): 0.13 ± 0.03 | tissue to tissue ratio at 2 h ([1]; tumor and kidney): 0.12 ± 0.06 | tissue to tissue ratio at 0.5 h ([1]; tumor and liver): 1.57 ± 0.14 | tissue to tissue ratio at 1 h ([1]; tumor and liver): 2.24 ± 0.68 | tissue to tissue ratio at 2 h ([1]; tumor and liver): 4.53 ± 1.44 | tissue to tissue ratio at 0.5 h ([1]; tumor and muscle): 2.69 ± 0.47 | tissue to tissue ratio at 1 h ([1]; tumor and muscle): 5.01 ± 0.82 | tissue to tissue ratio at 2 h ([1]; tumor and muscle): 15.6 ± 3.52 | tissue to tissue ratio at 4 h ([1]; tumor and muscle): 31.4 ± 9.05 | tissue uptake at 2 min ([1]; tumor): 1.37 ± 0.21 %ID/g | tissue uptake at 5 min ([1]; tumor): 1.41 ± 0.13 %ID/g | tissue uptake at 8 min ([1]; tumor): 1.45 ± 0.13 %ID/g | tissue uptake at 11 min ([1]; tumor): 1.46 ± 0.09 %ID/g | tissue uptake at 14 min ([1]; tumor): 1.46 ± 0.07 %ID/g | tissue uptake at 17 min ([1]; tumor): 1.48 ± 0.08 %ID/g | tissue uptake at 20 min ([1]; tumor): 1.51 ± 0.13 %ID/g | tissue uptake at 23 min ([1]; tumor): 1.46 ± 0.09 %ID/g | tissue uptake at 26 min ([1]; tumor): 1.46 ± 0.13 %ID/g | tissue uptake at 29 min ([1]; tumor): 1.45 ± 0.14 %ID/g | tissue uptake at 0.5 h ([1]; tumor): 1.43 ± 0.13 %ID/g | tissue uptake at 1 h ([1]; tumor): 1.27 ± 0.28 %ID/g | tissue uptake at 2 h ([1]; tumor): 1.04 ± 0.45 %ID/g | tissue uptake at 4 h ([1]; tumor): 0.98 ± 0.46 %ID/g | tissue uptake at 4 h ([2]; nude mice, heart, radioactive uptake: Heart, mouse S1): 0.31 %ID/g | tissue uptake at 4 h ([2]; nude mice, intestine, radioactive uptake: Intestine, Mean ± SD of S1-S3): 0.31 ± 0.1 %ID/g | tissue uptake at 4 h ([2]; nude mice, intestine, radioactive uptake: Intestine, mouse S1): 0.42 %ID/g | tissue uptake at 4 h ([2]; nude mice, intestine, radioactive uptake: Intestine, mouse S2): 0.29 %ID/g | tissue uptake at 4 h ([2]; nude mice, intestine, radioactive uptake: Intestine, mouse S3): 0.22 %ID/g | tissue uptake at 4 h ([2]; nude mice, muscle, radioactive uptake: Muscle, Mean ± SD of S1-S3): 0.5 ± 0.23 %ID/g | tissue uptake at 4 h ([2]; nude mice, muscle, radioactive uptake: Muscle, mouse S1): 0.46 %ID/g | tissue uptake at 4 h ([2]; nude mice, muscle, radioactive uptake: Muscle, mouse S2): 0.76 %ID/g | tissue uptake at 4 h ([2]; nude mice, muscle, radioactive uptake: Muscle, mouse S3): 0.3 %ID/g | tissue to tissue ratio at 4 h ([2]; nude mice, tumor and spleen): 7.2 ± 3 | tissue to tissue ratio at 4 h ([2]; nude mice, tumor/blood): 21.9 ± 16.7 | tissue to tissue ratio at 4 h ([2]; nude mice, tumor/bone): 4.23 ± 2.87 | tissue to tissue ratio at 4 h ([2]; nude mice, tumor/brain): 58.8 ± 28.7 | tissue to tissue ratio at 4 h ([2]; nude mice, tumor/intestine): 15.7 ± 10.3 | tissue to tissue ratio at 4 h ([2]; nude mice, tumor/muscle): 11.3 ± 8.54 | tissue to tissue ratio at 4 h ([2]; nude mice, tumor/stomach): 24 ± 9.97 | tissue uptake at 4 h ([2]; nude, blood, radioactive uptake: Blood, Mean ± SD of S1-S3): 0.31 ± 0.22 %ID/g | tissue uptake at 4 h ([2]; nude, blood, radioactive uptake: Blood, mouse S1): 0.2 %ID/g | tissue uptake at 4 h ([2]; nude, blood, radioactive uptake: Blood, mouse S2): 0.56 %ID/g | tissue uptake at 4 h ([2]; nude, blood, radioactive uptake: Blood, mouse S3): 0.16 %ID/g | tissue uptake at 4 h ([2]; nude, bone, radioactive uptake: Bone, Mean ± SD of S1-S3): 1.23 ± 0.43 %ID/g | tissue uptake at 4 h ([2]; nude, bone, radioactive uptake: Bone, mouse S1): 1.15 %ID/g | tissue uptake at 4 h ([2]; nude, bone, radioactive uptake: Bone, mouse S2): 1.69 %ID/g | tissue uptake at 4 h ([2]; nude, bone, radioactive uptake: Bone, mouse S3): 0.84 %ID/g | tissue uptake at 4 h ([2]; nude, brain, radioactive uptake: Brain, Mean ± SD of S1-S3): 0.08 ± 0.03 %ID/g | tissue uptake at 4 h ([2]; nude, brain, radioactive uptake: Brain, mouse S1): 0.11 %ID/g | tissue uptake at 4 h ([2]; nude, brain, radioactive uptake: Brain, mouse S2): 0.05 %ID/g | tissue uptake at 4 h ([2]; nude, brain, radioactive uptake: Brain, mouse S3): 0.06 %ID/g | tissue uptake at 4 h ([2]; nude, heart, radioactive uptake: Heart, Mean ± SD of S1-S3): 0.26 ± 0.06 %ID/g | tissue uptake at 4 h ([2]; nude, heart, radioactive uptake: Heart, mouse S2): 0.29 %ID/g | tissue uptake at 4 h ([2]; nude, heart, radioactive uptake: Heart, mouse S3): 0.2 %ID/g | tissue uptake at 4 h ([2]; nude, kidney, radioactive uptake: Kidney, Mean ± SD of S1-S3): 57 ± 5.7 %ID/g | tissue uptake at 4 h ([2]; nude, kidney, radioactive uptake: Kidney, mouse S1): 62.7 %ID/g | tissue uptake at 4 h ([2]; nude, kidney, radioactive uptake: Kidney, mouse S2): 51.3 %ID/g | tissue uptake at 4 h ([2]; nude, kidney, radioactive uptake: Kidney, mouse S3): 57.1 %ID/g | tissue uptake at 4 h ([2]; nude, liver, radioactive uptake: Liver, Mean ± SD of S1-S3): 0.62 ± 0.11 %ID/g | tissue uptake at 4 h ([2]; nude, liver, radioactive uptake: Liver, mouse S1): 0.66 %ID/g | tissue uptake at 4 h ([2]; nude, liver, radioactive uptake: Liver, mouse S2): 0.5 %ID/g | tissue uptake at 4 h ([2]; nude, liver, radioactive uptake: Liver, mouse S3): 0.71 %ID/g | tissue uptake at 4 h ([2]; nude, lung, radioactive uptake: Lung, Mean ± SD of S1-S3): 0.42 ± 0.1 %ID/g | tissue uptake at 4 h ([2]; nude, lung, radioactive uptake: Lung, mouse S1): 0.49 %ID/g | tissue uptake at 4 h ([2]; nude, lung, radioactive uptake: Lung, mouse S2): 0.46 %ID/g | tissue uptake at 4 h ([2]; nude, lung, radioactive uptake: Lung, mouse S3): 0.31 %ID/g | tissue uptake at 4 h ([2]; nude, spleen, radioactive uptake: Spleen, Mean ± SD of S1-S3): 0.6 ± 0.06 %ID/g | tissue uptake at 4 h ([2]; nude, spleen, radioactive uptake: Spleen, mouse S1): 0.66 %ID/g | tissue uptake at 4 h ([2]; nude, spleen, radioactive uptake: Spleen, mouse S2): 0.54 %ID/g | tissue uptake at 4 h ([2]; nude, spleen, radioactive uptake: Spleen, mouse S3): 0.59 %ID/g | tissue uptake at 4 h ([2]; nude, stomach, radioactive uptake: Stomach, Mean ± SD of S1-S3): 0.18 ± 0.04 %ID/g | tissue uptake at 4 h ([2]; nude, stomach, radioactive uptake: Stomach, mouse S1): 0.22 %ID/g | tissue uptake at 4 h ([2]; nude, stomach, radioactive uptake: Stomach, mouse S2): 0.15 %ID/g | tissue uptake at 4 h ([2]; nude, stomach, radioactive uptake: Stomach, mouse S3): 0.17 %ID/g | tissue to tissue ratio at 4 h ([2]; nude, tumor and heart): 18 ± 11.4 | tissue to tissue ratio at 4 h ([2]; nude, tumor and lung): 11.3 ± 7.18 | tissue uptake at 4 h ([2]; nude, tumor, radioactive uptake: Tumor, Mean ± SD of S1-S3): 4.38 ± 1.94 %ID/g | tissue uptake at 4 h ([2]; nude, tumor, radioactive uptake: Tumor, mouse S1): 5.03 %ID/g | tissue uptake at 4 h ([2]; nude, tumor, radioactive uptake: Tumor, mouse S2): 2.19 %ID/g | tissue uptake at 4 h ([2]; nude, tumor, radioactive uptake: Tumor, mouse S3): 5.9 %ID/g
